Measurements taken from publication PMC9889962.

Each substance was assayed against recombinant human FcγRI receptor (CD64) (UniProt P12314) (assay: SPR). Conditions: immobilized human FcγRI (CD64); parent: est. 100; read off a plot.
recombinant human FcγRI receptor (CD64), sequence (P12314 16-374): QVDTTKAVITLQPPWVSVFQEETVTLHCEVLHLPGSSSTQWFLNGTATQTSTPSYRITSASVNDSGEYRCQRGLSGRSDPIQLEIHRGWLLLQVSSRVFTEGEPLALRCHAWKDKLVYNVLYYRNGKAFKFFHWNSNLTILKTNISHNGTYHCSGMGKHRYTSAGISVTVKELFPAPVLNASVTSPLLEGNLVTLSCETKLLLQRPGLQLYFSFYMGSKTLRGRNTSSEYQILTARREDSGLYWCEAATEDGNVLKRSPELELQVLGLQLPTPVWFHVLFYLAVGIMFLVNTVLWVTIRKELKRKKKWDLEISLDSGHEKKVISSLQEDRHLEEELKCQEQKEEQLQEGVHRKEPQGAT

Compared with IgG1 (control) DAPA, IgG1 (control) FES is lower in percent of parent: 34% for the first, 21% for the second.

First: IgG1 (control) LGGR
Second: IgG1 (control) LALE
The percent of parent of the first is lower: 6% for the first, 8% for the second.

First: IgG1 (control) FQQ
Second: IgG1 (control) LALA
The percent of parent of the first is higher: 32% for the first, 27% for the second.

First: IgG1 (control) Agly
Second: IgG1 (control) LALAKA
The percent of parent of the first is lower: 24% for the first, 26% for the second.

First: IgG1 (control) Sigma
Second: IgG1 (control) LAGA
The percent of parent of the first is lower: 3.5% for the first, 8.5% for the second.
